± gives the standard error. For some assays here: Variants at the floor of the assay were thinned out.

Sequences and labels used below:
B1: glmS ribozyme (parent)
chain: AUAAAAGCGCCAGAACUACAGAAAUGUAGUUGACGAGGAGGAGGUUUAUCGAAUUUUCGGCGGAUGCCUCCAAA

Holding throughout (details): with glucosamine-6-phosphate
The variants in series [1] derive from B1. Description: kcat; higher = faster cleavage; RNA array. In outline:
(§1)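 Over ~14 h at 37 °C, tiles were imaged as glucosamine-6-phosphate (40 μM to 10 mM) in HEPES/KCl/Mg(OAc)2 buffer flowed across sequenced MiSeq chips. The chips carried barcoded ribozyme variants transcribed in situ by E. coli RNA polymerase and tracked with a hybridised Cy3 probe. After normalisation to baseline and to non-cleaving reference variants, one- or two-exponential decay fits of per-tile medians gave kobs. kcat and KM followed from weighted Michaelis–Menten fits across concentrations.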

Series [2] covers variants of B1. Description: KM; higher = weaker cofactor use; RNA array. In outline:
as §1

Series [3] covers variants of B1. Description: self-cleavage kobs at 160 uM GlcN6P; higher = faster cleavage; RNA array. In outline: as §1
Variants of B1 are the subject of series [4]. Description: self-cleavage kobs at 640 uM GlcN6P; higher = faster cleavage; RNA array. In outline:
as §1

In series [5] the parent is B1. Description: self-cleavage kobs at 2500 uM GlcN6P; higher = faster cleavage; RNA array. In outline: as §1
Variants of B1 are the subject of series [6]. Description: self-cleavage kobs at 10000 uM GlcN6P; higher = faster cleavage; RNA array. In outline:
as §1

The variants in series [7] derive from B1. Description: self-cleavage kobs at 40 uM GlcN6P; higher = faster cleavage; RNA array. In outline:
as §1

With A12U A42U, the kcat with glucosamine-6-phosphate [1] was determined as 0.000531 ± 7.4e-05 s⁻¹. In addition, in the series with glucosamine-6-phosphate [2], the KM was 1240 ± 330 µM. In the series with glucosamine-6-phosphate [3], the “self-cleavage kobs at 160 uM GlcN6P” value turned out to be 5.09e-05 ± 7.4e-06 s⁻¹. For the same variant, the “self-cleavage kobs at 640 uM GlcN6P” value in the series with glucosamine-6-phosphate [4] was found to be 0.000198 ± 1.9e-05 s⁻¹. Moreover, in the series with glucosamine-6-phosphate [5], the “self-cleavage kobs at 2500 uM GlcN6P” value was 0.000402 ± 3.2e-05 s⁻¹. For the same variant, the “self-cleavage kobs at 10000 uM GlcN6P” value with glucosamine-6-phosphate [6] was 0.000411 ± 4.6e-05 s⁻¹.
On to G43U C67U C68U, for which the kcat in the series with glucosamine-6-phosphate [1] worked out at 4.99e-05 ± 2e-05 s⁻¹. Further, the “self-cleavage kobs at 2500 uM GlcN6P” value with glucosamine-6-phosphate [5] worked out at 7.28e-05 ± 2.2e-05 s⁻¹. Also, the “self-cleavage kobs at 10000 uM GlcN6P” value with glucosamine-6-phosphate [6] was 3.53e-05 ± 1.7e-05 s⁻¹.
Turning to C58U C71A, the kcat in the series with glucosamine-6-phosphate [1] worked out at 7.75e-05 ± 1.6e-05 s⁻¹. Further, the “self-cleavage kobs at 10000 uM GlcN6P” value with glucosamine-6-phosphate [6] amounted to 2.61e-05 ± 1.2e-05 s⁻¹.
As for A6C C16G, the kcat in the series with glucosamine-6-phosphate [1] amounted to 1.5e-05 ± 3.9e-07 s⁻¹. In addition, the KM in the series with glucosamine-6-phosphate [2] was found to be 9790 ± 480 µM. In the series with glucosamine-6-phosphate [7], the “self-cleavage kobs at 40 uM GlcN6P” value was less than 1e-05 s⁻¹. Moreover, in the series with glucosamine-6-phosphate [3], the “self-cleavage kobs at 160 uM GlcN6P” value is less than 1e-05 s⁻¹. Also, the “self-cleavage kobs at 640 uM GlcN6P” value with glucosamine-6-phosphate [4] was less than 1e-05 s⁻¹.
As for C10G C50U, in the series with glucosamine-6-phosphate [1], the kcat is less than 1e-05 s⁻¹. In addition, in the series with glucosamine-6-phosphate [7], the “self-cleavage kobs at 40 uM GlcN6P” value was less than 1e-05 s⁻¹. In addition, the “self-cleavage kobs at 10000 uM GlcN6P” value with glucosamine-6-phosphate [6] is less than 1e-05 s⁻¹.
Take G40U U65G G66U: the kcat with glucosamine-6-phosphate [1] came out at 3.4e-05 ± 4.8e-06 s⁻¹. Also, the “self-cleavage kobs at 40 uM GlcN6P” value in the series with glucosamine-6-phosphate [7] was less than 1e-05 s⁻¹. For the same variant, the “self-cleavage kobs at 10000 uM GlcN6P” value with glucosamine-6-phosphate [6] is 3.38e-05 ± 1.5e-05 s⁻¹.
Take C50U U57C G63A: the kcat in the series with glucosamine-6-phosphate [1] was 2.57e-05 ± 3.6e-06 s⁻¹.
Take A52U U55C: the kcat with glucosamine-6-phosphate [1] was found to be 0.000619 ± 0.00011 s⁻¹. In the series with glucosamine-6-phosphate [5], the “self-cleavage kobs at 2500 uM GlcN6P” value was determined as 0.000125 ± 3.2e-05 s⁻¹. Moreover, the “self-cleavage kobs at 10000 uM GlcN6P” value with glucosamine-6-phosphate [6] was 0.000288 ± 4.2e-05 s⁻¹.
Regarding C58G C67A, the kcat with glucosamine-6-phosphate [1] worked out at 4.68e-05 ± 7.6e-06 s⁻¹. The “self-cleavage kobs at 640 uM GlcN6P” value with glucosamine-6-phosphate [4] is 6.09e-05 ± 1.3e-05 s⁻¹. For the same variant, the “self-cleavage kobs at 2500 uM GlcN6P” value in the series with glucosamine-6-phosphate [5] is 4.7e-05 ± 1.4e-05 s⁻¹. Besides, the “self-cleavage kobs at 10000 uM GlcN6P” value with glucosamine-6-phosphate [6] came to 3.78e-05 ± 1e-05 s⁻¹.
With A14U C58G, in the series with glucosamine-6-phosphate [1], the kcat was 0.000104 ± 9.8e-06 s⁻¹. In the series with glucosamine-6-phosphate [2], the KM was found to be 1960 ± 710 µM. In addition, the “self-cleavage kobs at 640 uM GlcN6P” value with glucosamine-6-phosphate [4] is 3.48e-05 ± 1.2e-05 s⁻¹. Moreover, the “self-cleavage kobs at 2500 uM GlcN6P” value with glucosamine-6-phosphate [5] is 4.98e-05 ± 1.1e-05 s⁻¹. For the same variant, the “self-cleavage kobs at 10000 uM GlcN6P” value in the series with glucosamine-6-phosphate [6] is 8.81e-05 ± 7.2e-06 s⁻¹.
As for U47G U69G, the kcat with glucosamine-6-phosphate [1] is 5.3e-05 ± 8.9e-06 s⁻¹. The “self-cleavage kobs at 40 uM GlcN6P” value with glucosamine-6-phosphate [7] is 4.11e-05 ± 9e-06 s⁻¹. Also, the “self-cleavage kobs at 160 uM GlcN6P” value with glucosamine-6-phosphate [3] was found to be 5.87e-05 ± 1.3e-05 s⁻¹. In addition, the “self-cleavage kobs at 640 uM GlcN6P” value with glucosamine-6-phosphate [4] was 7.19e-05 ± 9.1e-06 s⁻¹. The “self-cleavage kobs at 2500 uM GlcN6P” value with glucosamine-6-phosphate [5] came to 7.13e-05 ± 9.6e-06 s⁻¹. The “self-cleavage kobs at 10000 uM GlcN6P” value in the series with glucosamine-6-phosphate [6] amounted to 4.09e-05 ± 5.2e-06 s⁻¹.
For A53G C70A, the kcat with glucosamine-6-phosphate [1] came to 0.000194 ± 2e-05 s⁻¹. Moreover, in the series with glucosamine-6-phosphate [2], the KM turned out to be 63.2 ± 16 µM. Besides, the “self-cleavage kobs at 40 uM GlcN6P” value in the series with glucosamine-6-phosphate [7] was determined as 7.6e-05 ± 7e-06 s⁻¹. The “self-cleavage kobs at 160 uM GlcN6P” value with glucosamine-6-phosphate [3] turned out to be 0.000132 ± 1.6e-05 s⁻¹. In the series with glucosamine-6-phosphate [4], the “self-cleavage kobs at 640 uM GlcN6P” value came to 0.000188 ± 2.3e-05 s⁻¹. In the series with glucosamine-6-phosphate [5], the “self-cleavage kobs at 2500 uM GlcN6P” value turned out to be 0.000183 ± 2.6e-05 s⁻¹.
U57A U69A: in the series with glucosamine-6-phosphate [1], the catalytic constant (kcat) was determined as 3.14e-05 ± 6.3e-06 s⁻¹. In addition, the “self-cleavage kobs at 2500 uM GlcN6P” value with glucosamine-6-phosphate [5] was 3.75e-05 ± 1.1e-05 s⁻¹.
U54G G60C C68G: the kcat with glucosamine-6-phosphate [1] was 3.07e-05 ± 1.4e-05 s⁻¹.
As to G43U U46G, the kcat with glucosamine-6-phosphate [1] was found to be 2.88e-05 ± 5.1e-06 s⁻¹. Moreover, the “self-cleavage kobs at 640 uM GlcN6P” value with glucosamine-6-phosphate [4] is less than 1e-05 s⁻¹.
As for C16A A53U, the kcat with glucosamine-6-phosphate [1] was 0.00183 ± 0.0008 s⁻¹. In addition, the “self-cleavage kobs at 640 uM GlcN6P” value with glucosamine-6-phosphate [4] is 0.000241 ± 6.3e-05 s⁻¹. Further, in the series with glucosamine-6-phosphate [5], the “self-cleavage kobs at 2500 uM GlcN6P” value turned out to be 0.00116 ± 0.00029 s⁻¹. Further, in the series with glucosamine-6-phosphate [6], the “self-cleavage kobs at 10000 uM GlcN6P” value stood at 0.00118 ± 0.00035 s⁻¹.
With C50U A53C, in the series with glucosamine-6-phosphate [1], the kcat stood at 1.18e-05 ± 1.3e-06 s⁻¹.
Take A52U G66U: in the series with glucosamine-6-phosphate [1], the kcat is 4.61e-05 ± 3.4e-06 s⁻¹. Also, the “self-cleavage kobs at 40 uM GlcN6P” value with glucosamine-6-phosphate [7] was less than 1e-05 s⁻¹. Further, the “self-cleavage kobs at 2500 uM GlcN6P” value with glucosamine-6-phosphate [5] came out at 3.74e-05 ± 1.8e-05 s⁻¹. Besides, the “self-cleavage kobs at 10000 uM GlcN6P” value with glucosamine-6-phosphate [6] worked out at 4.26e-05 ± 1.2e-05 s⁻¹.
As to G41U U56G, in the series with glucosamine-6-phosphate [1], the kcat stood at 0.000847 ± 0.00013 s⁻¹. Besides, the KM with glucosamine-6-phosphate [2] was determined as 2280 ± 590 µM. Also, the “self-cleavage kobs at 40 uM GlcN6P” value with glucosamine-6-phosphate [7] turned out to be 2.66e-05 ± 1.2e-05 s⁻¹. Also, the “self-cleavage kobs at 160 uM GlcN6P” value with glucosamine-6-phosphate [3] amounted to 4.73e-05 ± 1.1e-05 s⁻¹. For the same variant, in the series with glucosamine-6-phosphate [4], the “self-cleavage kobs at 640 uM GlcN6P” value amounted to 0.000185 ± 3.5e-05 s⁻¹. Besides, the “self-cleavage kobs at 2500 uM GlcN6P” value in the series with glucosamine-6-phosphate [5] amounted to 0.000491 ± 5.8e-05 s⁻¹. Besides, the “self-cleavage kobs at 10000 uM GlcN6P” value in the series with glucosamine-6-phosphate [6] amounted to 0.00064 ± 9.6e-05 s⁻¹.
For the variant G41U U56C, in the series with glucosamine-6-phosphate [1], the kcat worked out at 3.03e-05 ± 3.2e-06 s⁻¹. For the same variant, in the series with glucosamine-6-phosphate [2], the KM was 1560 ± 400 µM. Also, the “self-cleavage kobs at 160 uM GlcN6P” value with glucosamine-6-phosphate [3] was less than 1e-05 s⁻¹.

The record behind these values is the supplement of paper PMC7125110.
